# Results published in paper PMC3765157 (PLoS ONE, 2013).
# B1: PrP-like ectodomain of mouse ZIP5 (Mm_ZIP5, residues 20-207), secreted from mammalian cells, deglycosylated (domain or fragment)
# chain: WVGGSVPNLGPAEQEQNHYLAQLFGLYGENGTLTAGGLARLLHSLGLGRVQGLRLGHHEPPTGRAAPTSGDNFTHRLQEPELSVDIWAGMPLGPSGWGDQEESKAPDLHGSGPSSLDLFQRLLLLDHSLADHLNEDCLNGSQLLVNFGLSPVAPLTPRQFALLSPALLYQIDSRVCIKTPAPAPPGDV
# notes: also called ZIP5 ectodomain; PrP-like ZIP5 ectodomain
# Molecular target: the molecule itself
# Assay: AUC
protein,measurement,value
B1,stoichiometry N,~2
